Target: T1, DRL1 (Drooping leaf1, YABBY C2C2) (Zea mays, UniProt A0A804LG43 A0A804LG43:1-207)
T1 sequence: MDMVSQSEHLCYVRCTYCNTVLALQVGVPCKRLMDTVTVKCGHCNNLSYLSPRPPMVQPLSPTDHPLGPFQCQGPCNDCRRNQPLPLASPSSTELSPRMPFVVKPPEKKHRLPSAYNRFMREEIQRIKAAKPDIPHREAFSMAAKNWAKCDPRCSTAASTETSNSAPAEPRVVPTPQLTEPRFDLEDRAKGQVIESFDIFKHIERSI
Experiment: EMSA; room temperature 20 min; band slightly brighter than W22 probe; competed by unlabeled probe
Details: tags: His fusion (PET32a, E. coli Rosetta, nickel beads); label: biotin
Experimental: EMSA (electrophoretic mobility shift assay) was carried out to validate the above speculation. First of all, biotin-labeled EMSA probes (UPA2-NIL^W22 biotin probes: UPA2-NIL^W22-F, UPA2-NIL^W22-R; UPA2-NIL^W22 competitive probe: UPA2-NIL^W22-com-F, UPA2-NIL^W22-com-R; UPA2-NIL⁸⁷⁵⁹ biotin probes: UPA2-NIL⁸⁷⁵⁹-F, UPA2-NIL⁸⁷⁵⁹-R; UPA2-NIL⁸⁷⁵⁹ competitive probe: UPA2-NIL⁸⁷⁵⁹-com-F, UPA2-NIL⁸⁷⁵⁹-com-R) were designed for the sequences of UPA2-NIL^W22 and UPA2-NIL⁸⁷⁵⁹ respectively. The probe included a C2C2-binding motif and upstream and downstream flanking sequences (each 22 bp). In the meantime, the corresponding sequences that were not labeled with biotin were synthesized as competitive probes. Next, the DRL1 CDS region was recombined onto a PET32a prokaryotic expression vector by a homologous recombination method to construct an expression vector of DRL1-His fusion proteins and it was introduced into the expression strain Rosetta to induce the expression of the DRL1-His fusion proteins. Finally, the DRL1-His fusion proteins were obtained through purification using Nickel beads. […]

B1: UPA2-NIL8759 probe (dsDNA)
DNA 1: AACTGCGCATGCGCGCGCTGAGTGTGGTCCTTCTCTTTTAATTACTACTG
DNA 2: CAGTAGTAATTAAAAGAGAAGGACCACACTCAGCGCGCGCATGCGCAGTT
  binding result: binds
